Experimental data reported in publication PMC5797217, “UFD-2 is an adaptor-assisted E3 ligase targeting unfolded proteins” (Nature Communications, 2018).
Values belong to the binder of their own block, whether it stands above or below them.

Legend:
[1] = molecular target: the molecule itself; experiment: crystal structure; crystal form UNC-45_(717), space group P6_(1)22, 3.8 Å; molecules form filaments in the crystal lattice
[2] = molecular target: T1, UNC-45 full-length, His6-tagged (C. elegans, UniProt G5EG62 1-961); experiment: pull-down; three proteins: His6-tagged UNC-45 pre-incubated with myosin (MHC-B motor domain) 60 min 27 °C, then with Strep-UFD-2 60 min 30 °C; Strep-Tactin beads; 5 µM protein; 20 mM Tris pH 7.5, 50 mM NaCl; Coomassie; conditions: both partners purified
T1 construct: UNC-45, C. elegans, full-length (961 residues by the printed limits of the deletion constructs); also called UNC-45-His6; wild-type, full-length protein; source: E. coli BL21-DE3-RIL, purified (NiNTA, SEC); not shown: His6, C-terminal, kept
T1 sequence (looked up): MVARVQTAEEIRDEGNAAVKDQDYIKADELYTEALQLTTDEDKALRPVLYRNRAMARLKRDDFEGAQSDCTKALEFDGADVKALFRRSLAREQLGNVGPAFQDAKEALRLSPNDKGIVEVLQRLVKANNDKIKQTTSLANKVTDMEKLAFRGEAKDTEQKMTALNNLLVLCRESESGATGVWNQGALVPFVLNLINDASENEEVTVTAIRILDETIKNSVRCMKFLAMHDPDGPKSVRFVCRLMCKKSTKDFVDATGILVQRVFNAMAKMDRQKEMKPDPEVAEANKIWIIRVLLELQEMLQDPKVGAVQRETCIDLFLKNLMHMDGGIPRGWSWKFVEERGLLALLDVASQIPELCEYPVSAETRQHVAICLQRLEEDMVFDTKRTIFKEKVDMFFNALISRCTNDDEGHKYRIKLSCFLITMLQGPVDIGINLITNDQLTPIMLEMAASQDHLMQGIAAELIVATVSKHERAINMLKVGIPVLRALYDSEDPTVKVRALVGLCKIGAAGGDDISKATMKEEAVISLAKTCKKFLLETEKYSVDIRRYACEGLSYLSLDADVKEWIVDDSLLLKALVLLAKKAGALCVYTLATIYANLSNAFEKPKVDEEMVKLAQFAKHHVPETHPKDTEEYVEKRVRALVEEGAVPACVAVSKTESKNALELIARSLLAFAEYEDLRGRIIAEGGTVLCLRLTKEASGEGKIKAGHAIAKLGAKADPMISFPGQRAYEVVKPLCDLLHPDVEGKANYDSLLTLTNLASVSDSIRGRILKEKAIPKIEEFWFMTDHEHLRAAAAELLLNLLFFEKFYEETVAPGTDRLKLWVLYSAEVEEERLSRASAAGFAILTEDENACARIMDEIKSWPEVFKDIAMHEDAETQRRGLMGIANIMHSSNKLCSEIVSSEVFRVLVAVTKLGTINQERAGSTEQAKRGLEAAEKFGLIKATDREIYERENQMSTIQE

B1: UNC-45 wild type, crystallised (crystal form UNC-45_(717)) (natural protein, C. elegans, UniProt G5EG62 1-961, looked up)
chain: T1 sequence (looked up)
notes: UNC-45, C. elegans, wild-type full-length protein used for crystallisation
binding result [1]: binds

binding result [2]: binds
B2: C. elegans MHC-B motor domain (1-790), His6-tagged (domain or fragment, UniProt P02566 1-790, looked up)
chain: MEHEKDPGWQYLRRTREQVLEDQSKPYDSKKNVWIPDPEEGYLAGEITATKGDQVTIVTARGNEVTLKKELVQEMNPPKFEKTEDMSNLSFLNDASVLHNLRSRYAAMLIYTYSGLFCVVINPYKRLPIYTDSCARMFMGKRKTEMPPHLFAVSDEAYRNMLQDHENQSMLITGESGAGKTENTKKVICYFAAVGASQQEGGAEVDPNKKKVTLEDQIVQTNPVLEAFGNAKTVRNNNSSRFGKFIRIHFNKHGRLASCDIEHYLLEKSRVIRQAPGERCYHIFYQIYSDFRPELKKELLLDLPIKDYWFVAQAELIIDGIDDVEEFQLTDEAFDILNFSAVEKQDCYRLMSAHMHMGNMKFKQRPREEQAEPDGTDEAEKASNMYGIGCEEFLKALTKPRVKVGTEWVSKGQNCEQVNWAVGAMAKGLYSRVFNWLVKKCNLTLDQKGIDRDYFIGVLDIAGFEIFDFNSFEQLWINFVNEKLQQFFNHHMFVLEQEEYAREGIQWVFIDFGLDLQACIELIEKPLGIISMLDEECIVPKATDLTLASKLVDQHLGKHPNFEKPKPPKGKQGEAHFAMRHYAGTVRYNCLNWLEKNKDPLNDTVVSAMKQSKGNDLLVEIWQDYTTQEEAAAKAKEGGGGGKKKGKSGSFMTVSMLYRESLNNLMTMLNKTHPHFIRCIIPNEKKQSGMIDAALVLNQLTCNGVLEGIRICRKGFPNRTLHPDFVQRYAILAAKEAKSDDDKKKCAEAIMSKLVNDGSLSEEMFRIGLTKVFFKAGVLAHLEDIRDEKL
notes: Myosin heavy chain B (MHC-B, UNC-54), C. elegans muscle myosin, motor domain residues 1-790, cloned from cDNA into pACEBac1; also called myosin; MHC-B head domain; source: High Five insect cells, purified (NiNTA, Streptactin wash fractions, SEC) or co-purified with UNC-45; not shown: His6, C-terminal, kept
